Results published in patent US20130344509A1 (published 2013).

Key:
[1] = target: T1, human TROP-2 (hTROP-2) protein endogenously expressed on the cell surface of human cancer cell lines (human, UniProt P09758 27-323); assay: FACS on PK-59 cells, 0.1 µg antibody
T1 construct: on PK-59, BxPC-3 and other human cancer cell lines, or in human tissue sections; also called TACSTD2; GA733-1
T1 sequence: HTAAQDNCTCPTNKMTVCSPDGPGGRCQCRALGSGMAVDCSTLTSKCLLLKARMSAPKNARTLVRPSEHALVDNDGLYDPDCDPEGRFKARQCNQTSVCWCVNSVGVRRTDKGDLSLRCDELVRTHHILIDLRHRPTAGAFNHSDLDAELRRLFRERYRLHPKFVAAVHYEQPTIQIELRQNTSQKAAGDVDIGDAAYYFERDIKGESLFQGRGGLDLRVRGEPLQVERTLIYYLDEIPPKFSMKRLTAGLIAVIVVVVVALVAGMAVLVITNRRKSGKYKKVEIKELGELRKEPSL
Method: (§1) Cancer cells were removed from a culture dish by a trypsin treatment, and a cell suspension was then prepared (cell density: 2×10⁶ cells/mL). An anti-hTROP-2 monoclonal antibody (0.1 μg) was added to 100 μL of the cell suspension, and they were then reacted at 4° C. for 20 minutes. The reaction solution was washed with PBS, and it was then reacted with PE-labeled anti-mouse IgG (BD Biosciences Pharmingen) (0.1 μg) (at 4° C. for 30 minutes). Thereafter, the resultant was analyzed by FACSCalibur (Becton, Dickinson and Company).
(§2) Subsequently, the reactivity of the generated anti-hTROP-2 monoclonal antibodies with human cancer cell lines (in which an hTROP-2 protein was endogenously expressed on the cell surface) was examined by FACS analysis.

[2] = target: T1, human TROP-2 (hTROP-2) protein …; assay: FACS on BxPC-3 cells, 0.1 µg antibody
Method: as §1, §2

Table 9 peptide No. 26 = target: T2, Table 9 peptide No. 26; assay: PEPSCAN/CLIPS peptide ELISA, 1 µg/mL antibody
T2 sequence (peptide): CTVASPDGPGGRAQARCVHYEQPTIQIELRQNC

- mean fluorescence intensity relative to PE-labeled anti-mouse IgG alone [1]: 122 times
- mean fluorescence intensity relative to PE-labeled anti-mouse IgG alone [2]: 121 times
- binding of K5-116-2-1 (Table 9 peptide No. 26): 1220
B1: anti-hTROP-2 monoclonal antibody clone K5-116-2-1 (antibody, V domains shown)
VH: QVQLQQPGAELVRPGASVKLSCKASGYTFTSYWITWVKQRPGQGLEWIGNIYPSDSYTNYNQKFRDKATLTVDKSSSTAYMQLSSPTSEDSAVYYCSALFDYWGQGTTLTVSS
VL: DILLTQSPAILSVSPGERVSFSCRASQSIGTSIHWYQQRTNGSPRLLIKYASESISGIPSRFSGSGSGTDFILSINSVESEDIADYYCQQSNSWPFTFGSGTKLEIK
notes: mouse IgG2a; hybridoma FERM BP-11253
